Assay results taken from a protein production outcome set (Wang et al. 2014).

Assay: label from the status in PepcDB records

Row | Sequence | protein production
1 | SLDPVSQSKLEQAIHDQIPQLAKTAGKDLEAAAIAVDRHSGEIRAMVGGKRTGYDGFNRVLNASRQIGSLVKPAVYLTALAHPDQYNLATTLEDKPLTLKGSEGSAWTPRNYDRQYRGEVPLYLALAQSLNVPTVALGMKLGIDQVSATLGKLGVNRDEIRPVPSMLLGSFSLTPYQVAQMYQTLTNSGKKAPLSALRSVLDLEGNVLYESLPRVSQAVDQQAAWLTTYAMKQGVQEGTGRYLNAQFSSAALAGKTGTTNDNRDSWFVGVDGREVTTIWLGRDDNQPTKLTGASGALRVYAQYLKYRIPEKLQLPW | failed
2 | SLENAGSRPFLADFNGFSYLELKGLHTFERDLGEKMALEMVFLARGPSGLLLYNGQKTDGKGDFVSLALHNRHLEFRYDLGKGAAIIRSKEPIALGTWVRVFLERNGRKGALQVGDGPRVLGESPVPHTMLNLKEPLYVGGAPDFSKLARGAAVASGFDGAIQLVSLRGHQLLTQEHVLRAVDVAPFAG | not failed
3 | SLEPAQANMDISTGHMILAYMEDHLRNRDRLAKEWQALCAYQAEPNTCATAQGEGNIKKNRHPDFLPYDHARIKLKVESSPSRSDYINASPIIEHDPRMPAYIATQGPLSHTIADFWQMVWESGCTVIVMLTPLVEDGVKQCDRYWPDEGASLYHVYEVNLVSEHIWCEDFLVRSFYLKNVQTQETRTLTQFHFLSWPAEGTPASTRPLLDFRRKVNKCYRGRSCPIIVHCSDGAGRTGTYILIDMVLNRMAKGVKEIDIAATLEHVRDQRPGLVRSKDQFEFALTAVAEEVNAILKALPQ | not failed
4 | SLGDQKPATIYAPTVRVTPNPAWPQVSWQLLVAKPSAARIIDSPRINVRPTPGELQVYHGAGWAQPATDMLEDSVVRAFEDSGKIAAVARIGAGIRSDYKLAIDVRRFESDYAGQSLPAATIELNAKLLHSSDQRVVASRTFTVARPSSSTDTAAVAAAFEQALTQVTTELVGWTLITGQQDSQTLPRAL | not failed
5 | SLGELFAVFNEKLTIPEQEALMFLYAYMPTGDVTDYTGDYYLENVRLSDQARREMPWGKEIPDDVFRHFVLPIRVNNENLDDSRRVFYNELKDRVKNLSLHDAVLEVNHWCHEKVIYTPSDARTSAPLASVKTAYGRCGEESTFTVAALRSVGIPARQVYTPRWAHTDDNHAWVEAWVDGKWYFFGACEPEPVLNLGWFNAPASRGMLMHTKVFGRYTGQEEIMYETPNYTEINVIDNYAPTAKGSVLVTDAEGQPVADATVEFKVYNYAEFYTVATKHTDRSGHASLTAGKGDMLVWASKDGRFGYSKLSFGKDNELKITLDKNASETYSLPLDIVPPAEGANLPEVTPEQRTENDRRMAQEDSIRNAYVATFITEEQARTFAKENKLDETETVRLLIASRGNHQTLTDFLSDAVKADKAGQAISLLKVVSAKDLRDVSPEVLNDHLNNSGLPASEDFCSNVLNPRVANEMITPYKAFFRKEIPASEAEAFRKNPQALVEWCKKEITINNELNSQRIPMSPMGVWKARVADEKSRNIFFVSMARSLGIPAWIDEVTGKIQYRTFNDNNLKNGKVYDVDFEAAQQTQAPTGTLVARYRPIPSLSDPKYYSHFTLSKFRNGTFQLLNYDEGDVDMGGGATWSNLLKNGARLDTGYYMMVTGTRMASGAVLANVTFFTIEEGKTTTVDLVMRESKDQVQVIGNFNSESTYLPIGTSEPQSILQTCGRGYYVVAVLGAGQEPTNHALRDIAALSGEFEKWGRKMVLLFPSEEQYKKFRPSEFPGLPSTITYGIDVDGAIQKQIAESMKLPNSTILPMFIIGDTFNRVVFVSQGYTIGLGEQLMKVIHGEG | not failed
6 | SLGEMKRAAIIIDDFGGDVKGVDDFLTGEIPVTVAVMPFLEHSTKQAEIAQAAGLEVIVHMPLEPKKGKISWLGPSGITSNLSVGEVKSRVRKAFDDIPYAVGLNNHMGSKIVENEKIMRAILEVVKEKNAFIIDSGTSPHSLIPQLAEELEVPYATRSIFLDNTHSSRKEVIKNMRKLAKKAKQGSEPIGIGHVGVRGDETYAGIRSMLDEFQAESIQLVPVSQLLPSPIEEDHNKFWQQPFQAKE | not failed
7 | SLHEEADHRVTDHGPRPFVVNIEDETKRNRAFRRALWTGDHLQVTLMSIQVGEDIGLEIHPHLDQFLRVEEGRGLVQMGHRQDNLHFQEEVFDDYAILIPAGTWHNVRNTGNRPLKLYSIYAPPQHPHGTVHETKAIAMAAEEHHHL | not failed
8 | SLIGFLSDRQGFEKQYHDIDLSSFGIREGISEIIASTGFEHPNAAPIGIVMKGERPFVRLFKGSHTWENVLKEKCLASNVVYDPILFVRSTFSDLVPSEFEYVDAGEFKFPVLKEAIAWVVFECINLRNTDQSLVADLVPLNAGFNERNIKELPVPNRGFNAVLEATVHATRYQLTGEEKYLELIRHYESLASKCGGDAEKKAMKLIYEALGL | not failed
9 | SLKRKLKPKRLQLPPQDVVFEGEAAMNEYTFYRNWVESWLQHIRSYYLLFIDGDPSLSKFFEIEICAHSWKRSTFDQQVFKFGLLWECVDIARSRTVYWQCALGTGHIQEDKVSEATSPFTDDSCTNSCLSRMTGQ | failed
10 | SLLCGPLRLSESGETWSEVWAAIPMSDPQVLHLQGGSQDGRLPRTIPLPSCKLSVPDPEERLDSGHVWKLQWAKQSWYLSASSAELQQQWLETLSTAAH | not failed
11 | SLMDVKCETPNCPFFMSVNTQPLCHECSERRQKNQN | not failed
12 | SLSSTELGDLFWSWLRDGLREGDIPVNTADACVHLTCGFVFISVPGVFFLFLKSHSRSCSSGLKESGRKEQVQAAFEKMRKHRVSDSRRFWQCCLYEEPGGRGRYKKLTGYLIKMSEIYANGNFPDDSLFLKVIN | not failed
13 | SLSTVELSGTVVKQGYLAKQGHKRKNWKVRRFVLRKDPAFLHYYDPSKEENRPVGGFSLRGSLVSALEDNGVPTGVKGNVQGNLFKVITKDDTHYYIQASSKAERAEWIEAIKKLT | not failed
14 | SLYGNSSGGTLLTTTKEGQGKDSVELNYSGGSHDKNRTGLILQGGAKQSNQPSYVISSSYFDTDGYREHSAAHKILNNAKLTWNLDDGSKINWITNYVKINADDPQGLTRDQWKANPKQQVPFLQQFDVRKDIEQTQTGVTWSKPINDQNELYMMGYLGNRKVTQYQSIPKSTQDASKNQAGGVIDFERNYYGADLRWTGKELLPNTTFSVGVALDAMDEDRKGYENYVTVNNQPSYGVKGNLRRDEDNTLWNIDPYLQASWQFLPTWRLDTGVRYSNVHYKSDDHFIVIGNTAKDSNPDDSGKTDYSKVLPSAALSWQIVPELLAYVSYAKGFETPTFTEMAYNPDPDLSGFNFGLKASTSDTYEAGLKSQNRLGDFTLAAFQTKTKDDIVSAGSINGRATFRNADRTLREGIEFTWNKQLWRDLVLNTSYAYLNATFDADVPATASVAAITSGNQIPGVAKNQAYASLAWKPQTGFHGGIDAQYNDKIYVDDKNSDAAPSYTVVAAYAGYTWQMQDWKLNVYSRVDNMFDKSYVGSVIVNDGNSRFFEPADGRNWSAGLRVSKQF | failed
15 | SNGQADRCDRTAYVSGLQPTISDIELFEVFNRVAHVEKVIVRNGAARHALIVFKTVQGLYQVLVNFQGTTLHGRQLHIRPLRESSHANSEAISTMFEKVKHQGNSGNSSYRQEHSFPEYRNQNPQASSYLPPNPRGHRNSTGCFNGGGGGYGRRRSAGGYNQYNQNKYPNETYPGMTLFDNHPVQQYSGFNPIDFRFDDYVEGAKRFDNLANLIRSSTPTDPFANYQKPCESTSTSRSRTNSAKDQKHGPPTWKMELQIKKDDHHHAGGGAATTGQKLSPQQFLAQIAQRQQSEQNADEVAKKKRPNLSVINPSLFYEQYPRTSSPVVYASKSKPSGHYDDKIASPHDPAVLAYSRLRVPQSAFDSLSPIDTDNCSFITKHLGPTTGVKRDLTNDELSDMIVSTGNLRINPTNIDHHDEPAPWSPLKRLRAESGSLSTAQVASPEFSPIKPKTMEFHETEDDVFETGPPPTYLSEGNENAEKKCVEQPKINYDDINNSRLPSNSHSAAPNSEKKHFVFPEYPMCRHSSVPSIAHLVGDLSDFCPHATADEKMLLDEASSIIENTTPAVSTAPAAAPGATMLQI | not failed
16 | SQKSLKRGQELNNQYETKAKRLKIDPCLVVDSPFNHGFTAQEILKGAKNNGEISFLIRFWHLDQPQVVPSGIAYVEIPQMVLKFYENHCNFHDYLNNYIS | failed
17 | SQLINLPMDQILYLSTSDIKHHVHLQTIHTLMDIRANLADFKKIHKKLYPCHRSYIVNTDMIISVNKTNYEATLINGQVLPVSRMKIGKIAQIVEERGR | not failed
18 | SQNSKTPFPEYFWSWFETYKESSVSERTKLTYKNTFNVLKKHLGGIPIEEMDRRLYRKFIAEFGKDHAKSTVSKFNSLYHACVKDAMYDGDMTKDFIAGTDIVYNRKKTRK | failed
19 | SQPDHGRLSPPEAPDRPTISTASETSVYVTWIPRGNGGFPIQSFRVEYKKLKKVGDWILATSAIPPSRLSVEITGLEKGISYKFRVRALNMLGESEPSAPSRPYVVSG | not failed
20 | SRGMTPGSRLIDYQLIDSTEELAAILGCGHPSSIHKITRVRLANDIPMAIESSHIPFELAGELNESHFQSSIYDHIERYNSIPISRAKQELEPSAATTEEANILGIQKGAPVLLIKRTTYLQNGTAFEHAKSVYRGDRYTFVHYMDRLS | failed
21 | SRGPEPGPQPTMEGDVLDTLEALGYKGPLLEEQALTKAAEGGLSSPEFSELCIWLGSQIKSLCNLEESITSAGRDDLESFQLEISGFLKEMACPYSVLISGDIKDRLKKKEDCLKLLLFLSTELQASQILQNKKHKNSQLDKNSEVYQEVQAMFDTLGIPKSTTSDIPHMLNQVESKVKDILSKVQKNHVGKPLLKMDLNSEQAEQLERINDALSCEYECRRRMLMKRLDVTVQSFGWSDRAKVKTDDIARIYQPKRYALSPKTTITMAHLLAAREDLSKIIRTSSGTSREKTACAINKVGVSFSTVENELMISYLMFLQILVYFSFMSW | not failed
22 | SRPRLSQLSVTDVTTSSLRLNWEAPPGAFDSFLLRFGVPSPSTLEPHPRPLLQRELMVPGTRHSAVLRDLRSGTLYSLTLYGLRGPHKADSIQGTARTL | not failed
23 | SSCGNDESDPDSTVTIAMATVEKQPQYDAPYLVLDNGEKLWVVQHIVPYRDLKAGERIFGNYSFLEAGESGFAYNIRLNDYTLVPVQKIIGLNPDNMDSIGNMKVQIKDMWPSDDYLNVRFMLNFPSPQKPILNLVVNEMIPWTKDGYAHLELRYNNNGSQGRLVPGMVSFKLDDYSPENSELKGIKVLVNPVDGEEKTYIFSYPLTGEDVPGFNPLDLAELK | not failed
24 | SSEANSNSEFQTFIEQENQKAAIQAAISKLTETCWDKCVGKPGSKLDRAESECIANCAERFLDSSSFIMQRLMKKQ | not failed
25 | SSFQSTTGHCVHMRGLPYRATENDIYNFFSPLNPMRVHIEIGPDGRVTGEADVEFATHEDAVAAMAKDKANMQHRYVELFLNSTAGTSG | not failed
26 | SSPQHLLVGGSGWNKIAIINKDTKEIVWEYPLEKGWECNSVAATKAGEILFSYSKGAKMITRDGRELWNIAAPAGCEMQTARILPDGNALVAWCGHPSTILEVNMKGEVLSKTEFETGIERPHAQFRQINKNKKGNYLVPLFATSEVREIAPNGQLLNSVKLSGTPFSSAFLDNGDCLVACGDAHCFVQLNLESNRIVRRVNANDIEGVQLFFVAQLFPLQNGGLYICNWQGHDREAGKGKHPQLVEIDSEGKVVWQLNDKVKFGMISTICPIRE | not failed
